Measured values as given in US20220010021A1 (Sanofi, published 2022).

T1: human beta-Klotho (KLB) (human, UniProt Q86Z14 53-997)
T1 construct: Bought protein; also called human KLB; β-Klotho
T1 sequence (looked up): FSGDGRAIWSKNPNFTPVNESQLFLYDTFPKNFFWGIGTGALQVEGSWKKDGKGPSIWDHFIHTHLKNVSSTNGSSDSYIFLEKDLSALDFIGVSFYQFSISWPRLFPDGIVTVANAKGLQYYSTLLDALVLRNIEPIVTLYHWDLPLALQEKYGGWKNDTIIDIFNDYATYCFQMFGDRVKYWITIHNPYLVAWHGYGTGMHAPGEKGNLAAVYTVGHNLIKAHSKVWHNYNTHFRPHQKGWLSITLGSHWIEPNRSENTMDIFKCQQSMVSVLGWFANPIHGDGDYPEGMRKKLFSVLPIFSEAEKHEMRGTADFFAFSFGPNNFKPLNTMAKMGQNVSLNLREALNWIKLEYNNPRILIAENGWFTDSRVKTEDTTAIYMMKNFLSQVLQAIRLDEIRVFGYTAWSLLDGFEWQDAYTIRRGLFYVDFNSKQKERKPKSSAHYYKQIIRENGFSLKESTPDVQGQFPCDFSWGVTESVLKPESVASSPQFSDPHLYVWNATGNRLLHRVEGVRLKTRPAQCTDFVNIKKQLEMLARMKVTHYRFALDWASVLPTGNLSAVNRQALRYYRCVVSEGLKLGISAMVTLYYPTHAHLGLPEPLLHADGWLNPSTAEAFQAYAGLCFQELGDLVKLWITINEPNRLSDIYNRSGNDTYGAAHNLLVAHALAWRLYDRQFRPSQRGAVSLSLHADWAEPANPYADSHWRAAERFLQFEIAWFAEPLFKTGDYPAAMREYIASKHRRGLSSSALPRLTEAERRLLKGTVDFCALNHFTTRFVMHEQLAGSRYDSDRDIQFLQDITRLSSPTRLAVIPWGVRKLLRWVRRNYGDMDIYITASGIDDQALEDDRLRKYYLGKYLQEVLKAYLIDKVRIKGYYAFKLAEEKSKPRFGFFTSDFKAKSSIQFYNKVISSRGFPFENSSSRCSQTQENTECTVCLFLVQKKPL


Experiments:
human beta-Klotho (KLB) = target: T1, human beta-Klotho (KLB); experiment: BLI off-rate screening (Octet), crude supernatant;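 also: supernatants tested at 25 µg/mL, dissociation from biosensors recorded in D-PBS with 0.1% BSA over 1800 s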
[1] = target: cell surface receptor composed of FGFR1c and co-receptor beta-Klotho (KLB) (human, UniProt P11362 22-822; Q86Z14 1-1044); experiment: cell-based or functional assay; as to Mean E max, Luciferase reporter gene assay: reference of the scale not given here
Sequence of cell surface receptor composed of FGFR1c and co-receptor beta-Klotho (KLB) (P11362 22-822, chain 1 of 2): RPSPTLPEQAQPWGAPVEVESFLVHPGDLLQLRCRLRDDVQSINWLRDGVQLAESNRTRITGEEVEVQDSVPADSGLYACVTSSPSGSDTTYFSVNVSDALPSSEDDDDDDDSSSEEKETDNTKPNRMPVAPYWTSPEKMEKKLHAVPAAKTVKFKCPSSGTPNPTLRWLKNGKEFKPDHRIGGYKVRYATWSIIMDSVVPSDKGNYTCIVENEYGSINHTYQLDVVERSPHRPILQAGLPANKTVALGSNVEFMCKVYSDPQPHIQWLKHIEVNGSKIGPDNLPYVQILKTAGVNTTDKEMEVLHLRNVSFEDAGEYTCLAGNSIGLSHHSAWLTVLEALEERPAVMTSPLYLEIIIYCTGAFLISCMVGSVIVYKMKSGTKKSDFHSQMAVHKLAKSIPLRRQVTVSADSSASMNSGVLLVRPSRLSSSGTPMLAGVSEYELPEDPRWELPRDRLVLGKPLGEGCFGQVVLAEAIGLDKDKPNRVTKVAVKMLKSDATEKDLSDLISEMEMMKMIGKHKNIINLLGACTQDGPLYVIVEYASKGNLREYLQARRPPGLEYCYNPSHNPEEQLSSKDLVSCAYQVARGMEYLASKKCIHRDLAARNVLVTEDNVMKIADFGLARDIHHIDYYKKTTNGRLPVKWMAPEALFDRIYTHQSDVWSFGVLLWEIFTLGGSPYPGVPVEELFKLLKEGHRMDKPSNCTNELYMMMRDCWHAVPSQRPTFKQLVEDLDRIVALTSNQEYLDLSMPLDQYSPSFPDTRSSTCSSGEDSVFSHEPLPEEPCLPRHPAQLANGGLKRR
Sequence of cell surface receptor composed of FGFR1c and co-receptor beta-Klotho (KLB) (Q86Z14 whole entry, chain 2 of 2): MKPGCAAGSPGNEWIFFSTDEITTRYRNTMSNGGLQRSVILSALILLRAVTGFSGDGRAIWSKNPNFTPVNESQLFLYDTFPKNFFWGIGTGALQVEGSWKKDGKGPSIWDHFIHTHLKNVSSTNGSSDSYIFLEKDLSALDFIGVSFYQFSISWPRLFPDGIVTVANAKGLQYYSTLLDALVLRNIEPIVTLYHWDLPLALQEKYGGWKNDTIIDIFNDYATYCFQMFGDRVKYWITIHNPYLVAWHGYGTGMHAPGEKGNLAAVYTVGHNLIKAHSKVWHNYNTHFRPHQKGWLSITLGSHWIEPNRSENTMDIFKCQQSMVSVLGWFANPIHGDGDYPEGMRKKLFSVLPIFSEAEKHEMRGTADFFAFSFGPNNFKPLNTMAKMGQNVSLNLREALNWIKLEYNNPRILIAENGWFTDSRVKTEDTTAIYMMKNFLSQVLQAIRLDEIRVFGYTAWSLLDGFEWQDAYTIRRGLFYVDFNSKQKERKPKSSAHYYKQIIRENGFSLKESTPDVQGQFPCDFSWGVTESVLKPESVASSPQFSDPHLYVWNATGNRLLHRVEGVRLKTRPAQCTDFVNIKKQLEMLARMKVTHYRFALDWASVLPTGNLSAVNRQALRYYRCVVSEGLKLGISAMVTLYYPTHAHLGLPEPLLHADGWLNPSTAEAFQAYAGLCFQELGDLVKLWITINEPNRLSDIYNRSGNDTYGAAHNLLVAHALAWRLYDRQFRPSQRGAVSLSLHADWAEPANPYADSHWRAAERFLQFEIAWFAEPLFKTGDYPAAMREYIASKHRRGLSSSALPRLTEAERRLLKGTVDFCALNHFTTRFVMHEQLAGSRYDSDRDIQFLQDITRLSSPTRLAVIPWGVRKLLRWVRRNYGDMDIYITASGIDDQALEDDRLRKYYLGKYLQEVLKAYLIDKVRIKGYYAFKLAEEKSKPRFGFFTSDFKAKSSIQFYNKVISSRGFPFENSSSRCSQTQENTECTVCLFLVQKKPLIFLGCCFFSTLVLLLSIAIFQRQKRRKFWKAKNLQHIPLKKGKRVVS

Binder | koff (human beta-Klotho (KLB)) | Mean E max, Luciferase reporter gene assay [1] | Mean EC50, Luciferase reporter gene assay [1]
16H7 light chain variant D95Y (antibody, IgG4, V domains shown, IgG4 backbone) VH: not shown VL: SYVLTQPPSVSVAPGQTARITCGGNNIGSESVHWYQQKPGQAPVLVVYDDSDRPSGIPERFSGSNSGNTATLTISRVEAGDEADYYCQVWDGNSYHVVFGGGTKLTVLG | 0.00013 s⁻¹ | 4% | 
16H7 light chain variant H33V (antibody, IgG4, V domains shown, IgG4 backbone) VH: not shown VL: SYVLTQPPSVSVAPGQTARITCGGNNIGSESVVWYQQKPGQAPVLVVYDDSDRPSGIPERFSGSNSGNTATLTISRVEAGDEADYYCQVWDGNSDHVVFGGGTKLTVLG | 0.00018 s⁻¹ | 104% | 147 pM
16H7 light chain variant H33T (antibody, IgG4, V domains shown, IgG4 backbone) VH: not shown VL: SYVLTQPPSVSVAPGQTARITCGGNNIGSESVTWYQQKPGQAPVLVVYDDSDRPSGIPERFSGSNSGNTATLTISRVEAGDEADYYCQVWDGNSDHVVFGGGTKLTVLG | 0.00014 s⁻¹ | 99% | 114 pM
16H7 light chain variant H96E (antibody, IgG4, V domains shown, IgG4 backbone) VH: not shown VL: SYVLTQPPSVSVAPGQTARITCGGNNIGSESVHWYQQKPGQAPVLVVYDDSDRPSGIPERFSGSNSGNTATLTISRVEAGDEADYYCQVWDGNSDEVVFGGGTKLTVLG | 1.1e-05 s⁻¹ | 100% | 122 pM
16H7 light chain variant H33G (antibody, IgG4, V domains shown, IgG4 backbone) VH: not shown VL: SYVLTQPPSVSVAPGQTARITCGGNNIGSESVGWYQQKPGQAPVLVVYDDSDRPSGIPERFSGSNSGNTATLTISRVEAGDEADYYCQVWDGNSDHVVFGGGTKLTVLG | 9.6e-05 s⁻¹ | 102% | 120 pM
16H7 light chain variant H96Q (antibody, IgG4, V domains shown, IgG4 backbone) VH: not shown VL: SYVLTQPPSVSVAPGQTARITCGGNNIGSESVHWYQQKPGQAPVLVVYDDSDRPSGIPERFSGSNSGNTATLTISRVEAGDEADYYCQVWDGNSDQVVFGGGTKLTVLG | 5e-05 s⁻¹ | 104% | 106 pM
16H7 light chain variant H33L (antibody, IgG4, V domains shown, IgG4 backbone) VH: not shown VL: SYVLTQPPSVSVAPGQTARITCGGNNIGSESVLWYQQKPGQAPVLVVYDDSDRPSGIPERFSGSNSGNTATLTISRVEAGDEADYYCQVWDGNSDHVVFGGGTKLTVLG | 5.5e-05 s⁻¹ | 114% | 115 pM
16H7 light chain variant H96R (antibody, IgG4, V domains shown, IgG4 backbone) VH: not shown VL: SYVLTQPPSVSVAPGQTARITCGGNNIGSESVHWYQQKPGQAPVLVVYDDSDRPSGIPERFSGSNSGNTATLTISRVEAGDEADYYCQVWDGNSDRVVFGGGTKLTVLG | 0.00014 s⁻¹ | 102% | 95 pM
16H7 light chain variant H96L (antibody, IgG4, V domains shown, IgG4 backbone) VH: not shown VL: SYVLTQPPSVSVAPGQTARITCGGNNIGSESVHWYQQKPGQAPVLVVYDDSDRPSGIPERFSGSNSGNTATLTISRVEAGDEADYYCQVWDGNSDLVVFGGGTKLTVLG | 0.00013 s⁻¹ | 98% | 176 pM
16H7 light chain variant H96N (antibody, IgG4, V domains shown, IgG4 backbone) VH: not shown VL: SYVLTQPPSVSVAPGQTARITCGGNNIGSESVHWYQQKPGQAPVLVVYDDSDRPSGIPERFSGSNSGNTATLTISRVEAGDEADYYCQVWDGNSDNVVFGGGTKLTVLG | 4.4e-05 s⁻¹ | 112% | 143 pM
16H7 light chain variant H33Q (antibody, IgG4, V domains shown, IgG4 backbone) VH: not shown VL: SYVLTQPPSVSVAPGQTARITCGGNNIGSESVQWYQQKPGQAPVLVVYDDSDRPSGIPERFSGSNSGNTATLTISRVEAGDEADYYCQVWDGNSDHVVFGGGTKLTVLG | 4.4e-05 s⁻¹ | 101% | 131 pM
16H7 light chain variant H96D (antibody, IgG4, V domains shown, IgG4 backbone) VH: not shown VL: SYVLTQPPSVSVAPGQTARITCGGNNIGSESVHWYQQKPGQAPVLVVYDDSDRPSGIPERFSGSNSGNTATLTISRVEAGDEADYYCQVWDGNSDDVVFGGGTKLTVLG | 2.2e-05 s⁻¹ | 100% | 111 pM
16H7 light chain variant H33A (antibody, IgG4, V domains shown, IgG4 backbone) VH: not shown VL: SYVLTQPPSVSVAPGQTARITCGGNNIGSESVAWYQQKPGQAPVLVVYDDSDRPSGIPERFSGSNSGNTATLTISRVEAGDEADYYCQVWDGNSDHVVFGGGTKLTVLG | 0.00013 s⁻¹ | 96% | 121 pM
16H7 light chain variant H33Y (antibody, IgG4, V domains shown, IgG4 backbone) VH: not shown VL: SYVLTQPPSVSVAPGQTARITCGGNNIGSESVYWYQQKPGQAPVLVVYDDSDRPSGIPERFSGSNSGNTATLTISRVEAGDEADYYCQVWDGNSDHVVFGGGTKLTVLG | 7.5e-05 s⁻¹ | 98% | 120 pM
16H7 light chain variant H33N (antibody, IgG4, V domains shown, IgG4 backbone) VH: not shown VL: SYVLTQPPSVSVAPGQTARITCGGNNIGSESVNWYQQKPGQAPVLVVYDDSDRPSGIPERFSGSNSGNTATLTISRVEAGDEADYYCQVWDGNSDHVVFGGGTKLTVLG | 0.00011 s⁻¹ | 113% | 165 pM
16H7 light chain variant H33I (antibody, IgG4, V domains shown, IgG4 backbone) VH: not shown VL: SYVLTQPPSVSVAPGQTARITCGGNNIGSESVIWYQQKPGQAPVLVVYDDSDRPSGIPERFSGSNSGNTATLTISRVEAGDEADYYCQVWDGNSDHVVFGGGTKLTVLG | 9.7e-05 s⁻¹ | 104% | 121 pM
16H7 light chain variant H96K (antibody, IgG4, V domains shown, IgG4 backbone) VH: not shown VL: SYVLTQPPSVSVAPGQTARITCGGNNIGSESVHWYQQKPGQAPVLVVYDDSDRPSGIPERFSGSNSGNTATLTISRVEAGDEADYYCQVWDGNSDKVVFGGGTKLTVLG | 6.4e-05 s⁻¹ | 98% | 179 pM
16H7 light chain variant H33F (antibody, IgG4, V domains shown, IgG4 backbone) VH: not shown VL: SYVLTQPPSVSVAPGQTARITCGGNNIGSESVFWYQQKPGQAPVLVVYDDSDRPSGIPERFSGSNSGNTATLTISRVEAGDEADYYCQVWDGNSDHVVFGGGTKLTVLG | 0.0001 s⁻¹ | 113% | 122 pM
16H7 light chain variant H33S (antibody, IgG4, V domains shown, IgG4 backbone) VH: not shown VL: SYVLTQPPSVSVAPGQTARITCGGNNIGSESVSWYQQKPGQAPVLVVYDDSDRPSGIPERFSGSNSGNTATLTISRVEAGDEADYYCQVWDGNSDHVVFGGGTKLTVLG | 4.6e-06 s⁻¹ | 103% | 
16H7 light chain variant H33C (antibody, IgG4, V domains shown, IgG4 backbone) VH: not shown VL: SYVLTQPPSVSVAPGQTARITCGGNNIGSESVCWYQQKPGQAPVLVVYDDSDRPSGIPERFSGSNSGNTATLTISRVEAGDEADYYCQVWDGNSDHVVFGGGTKLTVLG | 6.8e-05 s⁻¹ | 108% | 123 pM
16H7 light chain variant H33D (antibody, IgG4, V domains shown, IgG4 backbone) VH: not shown VL: SYVLTQPPSVSVAPGQTARITCGGNNIGSESVDWYQQKPGQAPVLVVYDDSDRPSGIPERFSGSNSGNTATLTISRVEAGDEADYYCQVWDGNSDHVVFGGGTKLTVLG | 6.8e-05 s⁻¹ | 99% | 166 pM
16H7 light chain variant H33M (antibody, IgG4, V domains shown, IgG4 backbone) VH: not shown VL: SYVLTQPPSVSVAPGQTARITCGGNNIGSESVMWYQQKPGQAPVLVVYDDSDRPSGIPERFSGSNSGNTATLTISRVEAGDEADYYCQVWDGNSDHVVFGGGTKLTVLG | 5.2e-05 s⁻¹ | 102% | 107 pM
16H7 light chain variant H96G (antibody, IgG4, V domains shown, IgG4 backbone) VH: not shown VL: SYVLTQPPSVSVAPGQTARITCGGNNIGSESVHWYQQKPGQAPVLVVYDDSDRPSGIPERFSGSNSGNTATLTISRVEAGDEADYYCQVWDGNSDGVVFGGGTKLTVLG | 0.00015 s⁻¹ | 95% | 130 pM
16H7 light chain variant H33E (antibody, IgG4, V domains shown, IgG4 backbone) VH: not shown VL: SYVLTQPPSVSVAPGQTARITCGGNNIGSESVEWYQQKPGQAPVLVVYDDSDRPSGIPERFSGSNSGNTATLTISRVEAGDEADYYCQVWDGNSDHVVFGGGTKLTVLG | 3.6e-05 s⁻¹ | 100% | 121 pM
